30 sequences from the nanobody polyreactivity screen of Harvey et al. (2022) can be followed below.

A short description of this data set: yeast display, Sf9 membrane polyspecificity reagent, FACS + sequencing; frameworks hold sequencing errors. In a few lines: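 Synthetic nanobody libraries on Saccharomyces cerevisiae BJ5465 were galactose-induced for 36–48 hours, stained 1 hour at 4 °C with 10% biotinylated, detergent-solubilized Sf9 membrane reagent and enriched on streptavidin microbeads. FACS then separated cells into low and high (top ~1%) gates by anti-HA (expression) and streptavidin (reagent binding) fluorescence. Genes were colony-PCR amplified, MiSeq 2 × 250 sequenced and CDR-length filtered. A clone's polyreactivity label is that of its gate of origin.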
Regarding “QVQLVESGGGLVQAGGSLRLSCAASGFTFKYYAMGWYRQAPGKERELVAAISRRGTSTYYADSVKGRFTISRYNAKNTVYLQMNCLKPEDTAVYYCSACAYGTYSVYWINEYDYWGQGTQVTVSS”, the “polyreactivity (PSR sort gate)” value was “high polyreactivity”.

Regarding “QVQLVESGGGLVQAGGSLRLSCAASGFTFKYYAMGWYRQAPGKERELVAVISSSGGSTYYADSVKGRFTISRDNAKNTVYLQMNSLKPEDTAVYYCAAELVYRYYVKDADDYWGQGTQVTVSS”, the “polyreactivity (PSR sort gate)” value is “low polyreactivity”.

For “QVQLVESGGGLVQAGGSLRLSCAASGFTFKYYAMGWYRQAPGQERELVAAISSTGSTYYADSVKGRFTISRDNAKNTVYLQTNSLKPEDTAVYYCNKLFEYWGGDNDYWGRGTQVTVSS”, the “polyreactivity (PSR sort gate)” value is reported as “high polyreactivity”.

For “QVQLVESGGGLVQAGGSLRLSCAASGFTFKYYDMGWYRQAPGKERELVAGITWDGGSTTYSDSVKGRFTISRDNAKNTVYLQMNSLKPEDTAVYYCAADVRYTSPFYYYLGAYYYWGQGTQVTVSS”, the “polyreactivity (PSR sort gate)” value is reported as “low polyreactivity”.

In the case of “QVQLVESGGGLVQAGGSLRLSCAASGFTFLINAMGWYRQAPGKERELVAAIRSGGSTNYADSVKGRFTISRDNAKNTVYLQMNSLKPEDTAVYYCAARRYYPYKYRYGYWGQGTQVTVSS”, the “polyreactivity (PSR sort gate)” value is listed as “high polyreactivity”.

As to “QVQLVESGGGLVQAGGSLRLSCAASGFTFLIYAMGWYIQAPGKERELVADISYNDDITYYADSVKGRFTISRDNAKNTVYLQMNSLKPEDTAVYYCAADYVNPELDYWGQGTQVTVSS”, the “polyreactivity (PSR sort gate)” value is “low polyreactivity”.

Take “QVQLVESGGGLVQAGGSLRLSCAASGFTFLNNTMGWYRQAPGKERELVAAITSSGDRTYYADSVKGRFTISRDNAKNTVYLQMNSLKPEDTAVYYCAADWAYYVASYLYYTFDYWGQGTQVTVSS”: the “polyreactivity (PSR sort gate)” value is recorded as “low polyreactivity”.

In the case of “QVQLVESGGGLVQAGGSLRLSCAASGFTFLNYDMGWYRQAPGKERELVAAISRSDGITYYADSVKGRFTISRDNAKNSVYLHMNSLKPEDTAVYYCAAERDTPVGVPGYEYYYWGQGTQVTVSS”, the “polyreactivity (PSR sort gate)” value is “high polyreactivity”.

“QVQLVESGGGLVQAGGSLRLSCAASGFTFLRNAMGWYRQAPGKERELVAAINRDGGRTYYADSVKGRFTISRDNAKNTVYLQMNSLKPADTAVYYCATTSQATSGPRRKLYYYWGQGTQVTVSS”: the “polyreactivity (PSR sort gate)” value was “high polyreactivity”.

Take “QVQLVESGGGLVQAGGSLRLSCAASGFTFLRNAMGWYRQAPGKERELVAAISRSDRTNYADSVKGRFTISRDNAKNTFYLQMNSLKPEDTAVYYCNARHSYWTGRRVTDDYDYWGQGTQVTVSS”: the “polyreactivity (PSR sort gate)” value is recorded as “high polyreactivity”.

As to “QVQLVESGGGLVQAGGSLRLSCAASGFTFLTYLMGWYRQAPGKERELVASISGSGGTTYYADSVKGRFTISRDNAKNTVYLQMNSLKPEDTAVYYCAASGRYRRYYKFNYWGQGTQVTVSS”, the “polyreactivity (PSR sort gate)” value is listed as “high polyreactivity”.

Regarding “QVQLVESGGGLVQAGGSLRLSCAASGFTFLVNAMGWYRLAPGKERELVAAISRIGASTYYADSVKVRFTISRDNAKNTVYIQMNSLKPQDTAVNYCAARPWANTYPRRRYDYWGQGTQVTVSS”, the “polyreactivity (PSR sort gate)” value is recorded as “high polyreactivity”.

In the case of “QVQLVESGGGLVQAGGSLRLSCAASGFTFLVYAMGWYRQAPGKERELVAGITSGGRTYYADSVKGRFTISRDNAKNTVYLQMNSLKPEDTAVYYCAASRWAYEMNYWGQGSQVTVSS”, the “polyreactivity (PSR sort gate)” value is given as “high polyreactivity”.

Turning to “QVQLVESGGGLVQAGGSLRLSCAASGFTFLVYVMGWYRQAPGKVRELVAAISSCGSSTYYADSVKGRFTISRDNAKNTVYLQMNSLKPEDTAVYYCAAAPYYSHEYDYWGQGTQVTVSS”, the “polyreactivity (PSR sort gate)” value is given as “low polyreactivity”.

With “QVQLVESGGGLVQAGGSLRLSCAASGFTFLWNAMGWYRQAPGKERELVAAISSSGGRTYYADSVKGRFTISRDNAKNTVYLLMNSLKPEDTAVYYCARVYSSPYNFGYWGQGTQVTVSS”, the “polyreactivity (PSR sort gate)” value is “low polyreactivity”.

In the case of “QVQLVESGGGLVQAGGSLRLSCAASGFTFLYNAMGWYRQAPGKERELVAAIDSGGNTNYADSVKGRFTISRDNAKITVYLQLNSLKPEDTAVYYCAADVVSGGQGTADYDYWGQGTQVTVSS”, the “polyreactivity (PSR sort gate)” value is “low polyreactivity”.

In the case of “QVQLVESGGGLVQAGGSLRLSCAASGFTFLYNAMGWYRQAPGKERELVAAIDSGGNTNYADSVKGRFTISRDNAKNTVYLQMNSLKPEDTAVYYCAADVVSVGQGTADYDYWGQGTQVTVSS”, the “polyreactivity (PSR sort gate)” value is listed as “low polyreactivity”.

“QVQLVESGGGLVQAGGSLRLSCAASGFTFLYNAMGWYRQAPGKERELVASINSGGSTNYADSVKGRFTISRDKSKNTVYLQMNRLKPEDTAVYYCNAKRHVRKGDYGGQGTQVTVSS”: the “polyreactivity (PSR sort gate)” value is listed as “low polyreactivity”.

“QVQLVESGGGLVQAGGSLRLSCAASGFTFLYNVMGWYRQAPGKERELVAAISQSGTDTYYADSVKGRFTISRDNAKYTVYLQMNSLKPEDTAVYYCAVDVYFYYRHYGYWGQGTQVTVSS”: the “polyreactivity (PSR sort gate)” value was “low polyreactivity”.

For “QVQLVESGGGLVQAGGSLRLSCAASGFTFLYYAMGWYRQAPGKEREVVAAISSGGSTYYADSVKGRFTISRDNAKNTVYLQMNSLKPEDTAVYYCNVRYTRNRWQYDYWGQGSQVTVSS”, the “polyreactivity (PSR sort gate)” value is “high polyreactivity”.

With “QVQLVESGGGLVQAGGSLRLSCAASGFTFLYYTMGWYRQAPGKERELVAAISSGGRTTYADSVKGRFTISRDNAKNTVYLQMNSLKQEDTAVYYCAARYRTLDGEVDYWGQGTQVTVSS”, the “polyreactivity (PSR sort gate)” value is given as “high polyreactivity”.

For “QVQLVESGGGLVQAGGSLRLSCAASGFTFNDYAMGWYRQAPGKERELVAAIDWSGGRTYYADSVKGRFTISRDNAKNTVYLQMNSLKPEDTAVYYCAAVLYSRLYLYRLDYWGQGTQVTVSS”, the “polyreactivity (PSR sort gate)” value is reported as “low polyreactivity”.

In the case of “QVQLVESGGGLVQAGGSLRLSCAASGFTFNFYAMRWYRQAPGKERELVAAITASGVRRYYADSVKGRFTISRDNAKNTVYLQMNSLKPEDTAVYYCNTYMYRNKSGYDYWGQGTQVTVSS”, the “polyreactivity (PSR sort gate)” value is reported as “high polyreactivity”.

In the case of “QVQLVESGGGLVQAGGSLRLSCAASGFTFNKYAMGWYRQAPGKERELVAAISSSGGSTRYADSVKGRFTISRDNAKNTVYLQMNSLKPEDTAVYYCAVYVTRDSGWWLYDYWGQGTQVTVSS”, the “polyreactivity (PSR sort gate)” value was “high polyreactivity”.

On to “QVQLVESGGGLVQAGGSLRLSCAASGFTFNNNAMGWYRQAPGKERELVAAITSSGGSTRYADSVKGRFTISRDNAKNTVYLQMNSLKPEDTAVYYCNAARQRKYSNWYDYWGQGTQVTVSS”, for which the “polyreactivity (PSR sort gate)” value is given as “high polyreactivity”.

On to “QVQLVESGGGLVQAGGSLRLSCAASGFTFNNYAMGWYRQAPGKERELVAAISSGAGTYYADSVKGRFTISRDNAKNTVYLQMNSLKPEDTAVYYCNASLKYQGLTRITYRDDYWGQGTQVTVSS”, for which the “polyreactivity (PSR sort gate)” value is listed as “low polyreactivity”.

For “QVQLVESGGGLVQAGGSLRLSCAASGFTFNRNDMGWYRQAPGKERELVAAISTSGGRTYYADSVKGRFTISRDNAKNTVYLQMNSLKPEDTAVYYCAADGIYPVGVDYWGQGTQVTVSS”, the “polyreactivity (PSR sort gate)” value is reported as “high polyreactivity”.

For the sequence “QVQLVESGGGLVQAGGSLRLSCAASGFTFNRTAMGWYRQAPGKERELVAAITRRGGSTYYADSVKGRFTISRDNAKNTVYLQMNSLKPEDTAVYYCAARRGAGDGYWGQGTQVTVSS”, the “polyreactivity (PSR sort gate)” value is “high polyreactivity”.

Consider “QVQLVESGGGLVQAGGSLRLSCAASGFTFNRYAMGWYRQAPGKERELVAAISWSGTSTYYADSVKGRFTISRDNAKNTVYLQMNSLKQEDTAVYYCAARVKGQWNTYDYWGQGTQVTVTS”, for which the “polyreactivity (PSR sort gate)” value is listed as “high polyreactivity”.

Regarding “QVQLVESGGGLVQAGGSLRLSCAASGFTFNRYAMGWYRQAPGKERELVATITSGGNTYYADSVKGRFTISRDNAKNTVYLQMNSLKPEDTAVYYCNKRGWYSVYRRDFWGQGTQVTVSS”, the “polyreactivity (PSR sort gate)” value was “high polyreactivity”.
